Experimental data: the nanobody polyreactivity screen of Harvey et al. (2022)

test: yeast display, Sf9 membrane polyspecificity reagent, FACS + sequencing; frameworks hold sequencing errors
Outline: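 Polyreactivity labels are assigned by the sorting gate from which each nanobody was recovered. The gates were low and high (top ~1%), set on anti-HA fluorescence for expression and streptavidin fluorescence for reagent binding. Before sorting, galactose-induced (36–48 hours) yeast display cells were stained for 1 hour at 4 °C with 10% biotinylated, detergent-solubilized Sf9 membrane reagent.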

| Sequence | polyreactivity (PSR sort gate) |
| --- | --- |
| HVQLVESGGGLVQAGGSLRLSCAASGGTFYTYVMGWYRPAPGKERELVAAISGSGGSTYYADSVKGRFTISRDNAKNTVYLQMNSLKPEDTAVYYCAAVLYYGDIPYYYWGQGTQVTVSS | high polyreactivity |
| HVQLVESGGGLVQAGGSLRLSCAASGIIFPIYAMGWYRQAARKERELVASISQSGASTYYADSVKGRFTISRDNAKNTVYLQMNSLNPEDTGVYYCAALNGVGPWQLSYEEFDYWGQGTQVTVSS | low polyreactivity |
| HVQLVESGGGLVQAGGSLRLSCAASGIIFYQYAMGWYRQAPGKERELVATISSNGGATYADSVKGRFTISRDNAKNTVYLQMNSLKPEDTAVYYCNAGGRYHAPSGDYWGQGTQVTVSS | low polyreactivity |
| HVQLVESGGGLVQAGGSLRLSCAASGIIFYYYTMGWYRPGPRKERELLAWSGGNTYYADSVKGRFTISRDNAKNTVYLQMNSLKPEDTAVYYCNALAIWSDDWDHWISYADDYWGQGTQVTVSS | low polyreactivity |
| HVQLVESGGGLVQAGGSLRLSCAASGRISGANMGWDRQAPGKERELGAAISNGGSTNYADSVKGRFTISRANAKNTVYLQMNSLKPEDTAVYYCAKLGPRSYSSYRYDYWGQGTQVTVSS | high polyreactivity |
| HVQLVESGGGLVQAGGSLRLSCAASGRSFRYNAMGWYRQAPGKERELVAAITRSGGSTDYADSVKGRFTISRDNAKNTVNLQMNSLKPEDTAVYYCAKLQNGQWSTSRVPGDYQYNYWGQGTQVTVSS | high polyreactivity |
| HVQLVESGGGLVQAGGSLRLSCAASGRTFPRYAMGWYRQAPGTERELVAAISVRAGITYYADSVKGRFTISRDNAKNTVYLQMNSLKPEDTAVYYCAKDLWTTSYDEGDYWGQGTQVTVSS | low polyreactivity |
| HVQLVESGGGLVQAGGSLRLSCAASGRTFVVNAMGWYRQAPGTEREFVAAISYRGDSTYYAVSVKGRFTFSRDNSKNTVYLQMNSLKPEDTAVYYCAARVLGPGRRYYYWGQGTQVTVSS | high polyreactivity |
| HVQLVESGGGLVQAGGSLRLSCAASGSIFAQYAMGWYRQAPRKDRELLAAISRSTGRTYYADSVKGRFTISRDNAKNTVYLQMNSLKPEDNAVYYWNVVANRALSRSGYDYWGQGTQVTVSS | high polyreactivity |
| HVQLVESGGGLVQAGGSLRLSCAASGSIFKRYAMGWYTQAPGKERELVAAITSGGSTNYADSVKGRFTISRDNAKNTVYLQMNSLKPEDTAVYYCAAEHDYYPSNLDYWGQGTQVTVSS | low polyreactivity |
| HVQLVESGGGLVQAGGSLRLSCAASGSIFSGNAMGWSRQAPGKERELVAAIDWSGDSTYYADSVKGRFTLSRDNAKNTVYLQMNSLKPEDTAVYYCNTVSFSWGYSAYDYWGQGTQVTVSS | low polyreactivity |
| HVQLVESGGGLVQAGGSLRLSCAASGSISAVNTMGWYRQAPGKERELVATISYSTASTYYADSVKGRFTISRDNAKNTVYLQMNSLKPEDTAVYYCAADAYFDTWYDYWGQGTQVTVSS | low polyreactivity |
| HVQLVESGGGLVQAGGSLRLSCAASGSTFFWYAMGWYRQATGKERELVAAISKTGGSTYYADSVKGRFTISRDNAQNTVYLQMNSLKPEDTAVYYCNAVRYASKAARSFDYWGQGTQVTVSS | low polyreactivity |
| HVQLVESGGGLVQAGGSLRLSCAASGSTFNINAMGWYRQAPGKETEFVAAINYRGGSTYYADSVKGRFTISRDNSKNTVYLQMNSLKPEDTAVYYCAAASWKVRKKFDYWGQGTQVTVSS | low polyreactivity |
| HVQLVESGGGLVQAGGSLRLSCAASGYIFYVYAMGWYRQAPGKERELVAAINSGDITSYADSVKGRFTISRDNAKNTVYFQMNSLKPEDTAVYYCATVLILIYDYWGQGTQVTVSS | low polyreactivity |
| HVQLVESGGGLVQAGGSLRLSFAASASIYQFYPMGWYRPAPGKERELVAGINNSGGSTYYADSVKGRFTISRDNAKNTVYLQMNSLKPEDTAVYYCMARSRYDTGRQRGYDYWGQGTQVTVSS | low polyreactivity |
| HVQLVESGGGLVQAGGSLRLSSAASGITFYHNAMGWYRQAPGKEMELVAVSSRGGSTYYADSVKGRFTISRDNAKNTVYLQMNSLKPEDTAVYYCNARFWSYRGQVWYYYWGQGTQVTVSS | high polyreactivity |
